Assay [1] has as its target mouse serum albumin (mouse) (UniProt P07724). Description: SPR Biacore 3000; mouse albumin against human/rhesus albumin as reference. In general terms: SPR reads the build-up and loss of mass on a sensor chip optically.
For assay [2], the target named is human serum albumin (human) (UniProt P02768). Description: SPR Biacore 3000, albumin amine-coupled on CM5 chip, nanobody concentration series.
Assay [3] addresses mouse serum albumin (mouse) (UniProt P07724). Described as above.
The target of assay [4] is rhesus serum albumin (rhesus) (UniProt Q28522). The description is as above.
rhesus serum albumin (rhesus), sequence (Q28522 17-600 limits assumed): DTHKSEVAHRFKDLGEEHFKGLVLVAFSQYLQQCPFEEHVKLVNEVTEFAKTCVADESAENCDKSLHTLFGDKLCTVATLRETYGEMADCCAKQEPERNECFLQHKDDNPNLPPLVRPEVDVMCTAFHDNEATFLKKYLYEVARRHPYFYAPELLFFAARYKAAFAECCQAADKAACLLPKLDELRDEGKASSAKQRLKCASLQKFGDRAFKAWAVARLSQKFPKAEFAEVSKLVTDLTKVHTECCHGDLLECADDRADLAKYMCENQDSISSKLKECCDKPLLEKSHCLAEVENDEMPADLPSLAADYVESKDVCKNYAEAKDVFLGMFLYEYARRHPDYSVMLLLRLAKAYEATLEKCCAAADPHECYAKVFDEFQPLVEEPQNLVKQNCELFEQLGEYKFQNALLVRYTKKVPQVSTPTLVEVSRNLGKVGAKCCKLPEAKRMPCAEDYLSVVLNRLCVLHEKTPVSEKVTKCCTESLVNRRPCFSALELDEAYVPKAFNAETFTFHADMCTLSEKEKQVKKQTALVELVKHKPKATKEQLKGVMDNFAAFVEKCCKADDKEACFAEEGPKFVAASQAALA

This is an account of results in patent US20100113339A1.

PMP6A6 (ALB1) (VHH), sequence (VHH): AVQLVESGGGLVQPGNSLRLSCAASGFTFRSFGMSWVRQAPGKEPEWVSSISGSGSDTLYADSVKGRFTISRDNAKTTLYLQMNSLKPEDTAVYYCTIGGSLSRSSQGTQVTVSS
mouse serum albumin (mouse), sequence (P07724 25-608 limits assumed): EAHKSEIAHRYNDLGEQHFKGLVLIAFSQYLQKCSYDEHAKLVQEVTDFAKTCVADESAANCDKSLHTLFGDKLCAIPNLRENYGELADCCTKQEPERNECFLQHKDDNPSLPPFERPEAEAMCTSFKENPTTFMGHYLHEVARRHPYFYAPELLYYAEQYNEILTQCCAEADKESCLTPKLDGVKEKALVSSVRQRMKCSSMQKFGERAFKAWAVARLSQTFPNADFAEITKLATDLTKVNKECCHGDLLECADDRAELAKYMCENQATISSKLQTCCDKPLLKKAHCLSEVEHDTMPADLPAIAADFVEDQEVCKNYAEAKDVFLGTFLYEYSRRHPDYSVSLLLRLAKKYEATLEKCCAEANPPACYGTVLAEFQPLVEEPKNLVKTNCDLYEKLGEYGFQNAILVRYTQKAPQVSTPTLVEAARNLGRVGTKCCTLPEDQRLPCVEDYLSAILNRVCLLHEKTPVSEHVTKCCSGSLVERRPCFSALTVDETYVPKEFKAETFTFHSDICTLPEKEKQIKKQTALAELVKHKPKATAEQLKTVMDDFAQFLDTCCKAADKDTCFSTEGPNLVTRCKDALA

What is called Kd is a measure of binding affinity in units of concentration. Lower therefore signals a tighter complex. For orientation: koff means the first-order rate constant of dissociation. Read a low koff as a long-lived complex. What is called kon is a measure of how fast the partners come together. The substance PMP6A6 (ALB1) (VHH) had a factor of difference in affinity for human/rhesus versus mouse serum albumin in assay [1] of 12 fold. In assay [2], this substance registered a Kd of 0.57 nM, a dissociation rate constant (koff) of 0.00063 s⁻¹ and an on-rate (kon) of 1.11e+06 M⁻¹ s⁻¹. For the same substance, in assay [3], the equilibrium dissociation constant (Kd) was determined as 6.5 nM, the off-rate constant (koff) is 0.00725 s⁻¹ and the on-rate constant (kon) turned out to be 1.11e+06 M⁻¹ s⁻¹. In assay [4], this substance returned an equilibrium dissociation constant (Kd) of 0.52 nM, an off-rate (koff) of 0.000546 s⁻¹ and an on-rate (kon) of 1.05e+06 M⁻¹ s⁻¹.
